Reference: publication PMC6377682, “ASPP proteins discriminate between PP1 catalytic subunits through their SH3 domain and the PP1 C-tail” (Nature Communications, 2019)

B1: human ASPP2^920-1120 (domain or fragment, UniProt Q13625 920-1120, looked up)
chain: MRVKFNPLALLLDSSLEGEFDLVQRIIYEVDDPSLPNDEGITALHNAVCAGHTEIVKFLVQFGVNVNAADSDGWTPLHCAASCNNVQVCKFLVESGAAVFAMTYSDMQTAADKCEEMEEGYTQCSQFLYGVQEKMGIMNKGVIYALWDYEPQNDDELPMKEGDCMTIIHREDEDEIEWWWARLNDKEGYVPRNLLGLYPRI
notes: ASPP2, human, residues 920-1120 (RVxF motif, ankyrin repeats, SH3 domain); pGEX-6P2 construct; source: E. coli Rosetta (DE3) pLysS, purified (glutathione-Sepharose, 3C cleavage, SEC); for the crystal co-expressed with PP1α^7-330 in E. coli BL21 (DE3)
B2: ASPP2^D1091G/E1092P (domain or fragment, human, UniProt Q13625 920-1120, looked up)
chain: MRVKFNPLALLLDSSLEGEFDLVQRIIYEVDDPSLPNDEGITALHNAVCAGHTEIVKFLVQFGVNVNAADSDGWTPLHCAASCNNVQVCKFLVESGAAVFAMTYSDMQTAADKCEEMEEGYTQCSQFLYGVQEKMGIMNKGVIYALWDYEPQNDDELPMKEGDCMTIIHREGPDEIEWWWARLNDKEGYVPRNLLGLYPRI
notes: ASPP2, human, residues 920-1120 with n-Src loop mutations; also called double mutant mimicking the human iASPP n-Src loop
B15: human iASPP^621-828 (domain or fragment, UniProt Q8WUF5 621-828, looked up)
chain: RRARLNPLVLLLDAALTGELEVVQQAVKEMNDPSQPNEEGITALHNAICGANYSIVDFLITAGANVNSPDSHGWTPLHCAASCNDTVICMALVQHGAAIFATTLSDGATAFEKCDPYREGYADCATYLADVEQSMGLMNSGAVYALWDYSAEFGDELSFREGESVTVLRRDGPEETDWWWAALHGQEGYVPRNYFGLFPRVKPQRSKV
notes: the protein preparation paragraph prints iASPP^608-828 in pGEX-6P2

What was measured:
Conditions in all cases: both partners purified
human PP1α^7-330 [1] = target: T1, human PP1α^7-330 (human, UniProt P62136 7-330); test: ITC; ASPP2 (25 μM) titrated into His6-tagged PP1 (3–4 μM), 25 °C; 20 mM Tris pH 8, 500 mM NaCl, 0.5 mM TCEP, 1 mM MnCl2
T1 construct: PP1 catalytic subunit alpha, human, residues 7-330; His6 tag kept for ITC and BLI (captured on Ni-NTA sensors); also called full-length PP1α (as the text calls it); source: for the crystal co-expressed with ASPP2^920-1120 in E. coli BL21 (DE3), purified (Ni-NTA, glutathione-Sepharose, SEC)

human PP1α^7-330 [2] = target: T1, human PP1α^7-330; test: BLI; HIS tagged PP1α, PP1β or PP1γ1 (50 μg/ml) immobilised on Ni-NTA biosensors, ASPP in solution in kinetics buffer, 25 °C, 1000 rpm; global fit 1:1 model; apparent KD
human PP1β^6-327 = target: T2, human PP1β^6-327 (human, UniProt P62140 6-327); test: as above
T2 construct: PP1 catalytic subunit beta, human, residues 6-327; source: bacterial culture with GroEL/GroES chaperone; purification for BLI not described

human PP1γ1^7-323 = target: T3, human PP1γ1^7-323 (human, UniProt P36873 7-323); test: as above
T3 construct: source: bacterial culture with GroEL/GroES chaperone; purification for BLI not described

human ASPP2^920-1120 = target: B1; test: ITC; PP1 peptides (350–550 μM) titrated into ASPP2^920-1120 (40 μM), 20 °C; 25 mM Tris pH 8.0, 200 mM NaCl, 0.5 mM TCEP; single binding site model; ASPP2 mutants and iASPP in place of ASPP2 for Fig. 6e
human iASPP^621-828 = target: B15; test: as above
ASPP2^D1091G/E1092P = target: B2; test: as above

For B1, the Kd (human PP1α^7-330 [1]) was 6.1 nM, the Kd (human PP1α^7-330 [2]) was 13.6 nM and the “half-life of the complex” value (human PP1α^7-330 [2]) was 0.517 min. The “fold lower affinity than for PP1α (13.6 nM)” value (human PP1β^6-327) was 13 fold and the “fold lower affinity than for PP1α (13.6 nM)” value (human PP1γ1^7-323) was 14 fold.

B2: binds (human PP1α^7-330 [2]).

B3: ASPP2^D1091K/E1092V/E1094K (recombinant fragment) (domain or fragment, human, UniProt Q13625 920-1120, looked up)
chain: MRVKFNPLALLLDSSLEGEFDLVQRIIYEVDDPSLPNDEGITALHNAVCAGHTEIVKFLVQFGVNVNAADSDGWTPLHCAASCNNVQVCKFLVESGAAVFAMTYSDMQTAADKCEEMEEGYTQCSQFLYGVQEKMGIMNKGVIYALWDYEPQNDDELPMKEGDCMTIIHREKVDKIEWWWARLNDKEGYVPRNLLGLYPRI
notes: ASPP2, human, residues 920-1120 with n-Src loop mutations; also called ASPP2^KVK; triple mutant mimicking the C. elegans iASPP n-Src loop
B3 showed a Kd (human PP1α^7-330 [2]) of 8200 nM.

B4: ASPP2^D1093S (domain or fragment, human, UniProt Q13625 920-1120, looked up)
chain: MRVKFNPLALLLDSSLEGEFDLVQRIIYEVDDPSLPNDEGITALHNAVCAGHTEIVKFLVQFGVNVNAADSDGWTPLHCAASCNNVQVCKFLVESGAAVFAMTYSDMQTAADKCEEMEEGYTQCSQFLYGVQEKMGIMNKGVIYALWDYEPQNDDELPMKEGDCMTIIHREDESEIEWWWARLNDKEGYVPRNLLGLYPRI
notes: ASPP2, human, residues 920-1120 with an n-Src loop mutation; also called single ASPP2 mutant mimicking the ASPP1 n-Src loop
B4: binds (human PP1α^7-330 [2]).

B5: ASPP2^E1090K/D1093S (domain or fragment, human, UniProt Q13625 920-1120, looked up)
chain: MRVKFNPLALLLDSSLEGEFDLVQRIIYEVDDPSLPNDEGITALHNAVCAGHTEIVKFLVQFGVNVNAADSDGWTPLHCAASCNNVQVCKFLVESGAAVFAMTYSDMQTAADKCEEMEEGYTQCSQFLYGVQEKMGIMNKGVIYALWDYEPQNDDELPMKEGDCMTIIHRKDESEIEWWWARLNDKEGYVPRNLLGLYPRI
notes: ASPP2, human, residues 920-1120 with n-Src loop mutations; also called double ASPP2 mutant mimicking the ASPP1 n-Src loop
B5: binds (human PP1α^7-330 [2]).

B6: PP1α^301-330 C-tail peptide (peptide, UniProt P62136 301-330, looked up)
peptide: KNKGKYGQFSGLNPGGRPITPPRNSAKAKK
notes: also called PP1α C-tail; source: synthetic peptide (LRI peptide synthesis core facility)
With B6 the Kd (human ASPP2^920-1120) was 143 nM, the Kd (human iASPP^621-828) was 395 nM and the binding result (ASPP2^D1091G/E1092P) was “binds”.

B7: PP1α^301-330 3KA peptide (peptide, UniProt P62136 301-330, looked up)
peptide: KNKGKYGQFSGLNPGGRPITPPRNSAAAAA
notes: also called PP1α 3KA; source: synthetic peptide (LRI peptide synthesis core facility)
In the case of B7, the Kd (human ASPP2^920-1120) is reported as 1900 nM and the Kd (human iASPP^621-828) is reported as 690 nM.

B8: PP1α^301-330 K327A peptide (peptide, UniProt P62136 301-330, looked up)
peptide: KNKGKYGQFSGLNPGGRPITPPRNSAAAKK
notes: also called PP1α^K327 to alanine; source: synthetic peptide (LRI peptide synthesis core facility)
With B8 the “fold decrease in affinity against PP1α^301-330” value (human ASPP2^920-1120) was 4 fold.

B9: PP1α^301-330 K329A peptide (peptide, UniProt P62136 301-330, looked up)
peptide: KNKGKYGQFSGLNPGGRPITPPRNSAKAAK
notes: source: synthetic peptide (LRI peptide synthesis core facility)
B9: binds (human ASPP2^920-1120).

B10: PP1α^301-330 K330A peptide (peptide, UniProt P62136 301-330, looked up)
peptide: KNKGKYGQFSGLNPGGRPITPPRNSAKAKA
notes: as for B9
B10: binds (human ASPP2^920-1120).

B11: PP1α^317-323 core PPII motif peptide (peptide)
peptide: RPITPPR
notes: as for B9
B11 gave a Kd (human ASPP2^920-1120) of 5650 nM.

B12: PP1α^317-330 peptide (peptide)
peptide: RPITPPRNSAKAKK
notes: PP1α, human, residues 324-330; source: synthetic peptide (LRI peptide synthesis core facility)
Binder B12 has a Kd (human ASPP2^920-1120) of 270 nM.

B13: human ASPP1^882-1090 (domain or fragment, UniProt Q96KQ4 882-1090, looked up)
chain: LRVRFNPLALLLDASLEGEFDLVQRIIYEVEDPSKPNDEGITPLHNAVCAGHHHIVKFLLDFGVNVNAADSDGWTPLHCAASCNSVHLCKQLVESGAAIFASTISDIETAADKCEEMEEGYIQCSQFLYGVQEKLGVMNKGVAYALWDYEAQNSDELSFHEGDALTILRRKDESETEWWWARLGDREGYVPKNLLGLYPRIKPRQRTLA
notes: ASPP1, human, residues 882-1090; source: pGEX-6P2 construct; expression and purification described only for ASPP2
B13: binds (human PP1α^7-330 [2]); binds (human PP1β^6-327); binds (human PP1γ1^7-323).

B14: ASPP1^K1052E/S1055D (domain or fragment, human, UniProt Q96KQ4 882-1090, looked up)
chain: LRVRFNPLALLLDASLEGEFDLVQRIIYEVEDPSKPNDEGITPLHNAVCAGHHHIVKFLLDFGVNVNAADSDGWTPLHCAASCNSVHLCKQLVESGAAIFASTISDIETAADKCEEMEEGYIQCSQFLYGVQEKLGVMNKGVAYALWDYEAQNSDELSFHEGDALTILRREDEDETEWWWARLGDREGYVPKNLLGLYPRIKPRQRTLA
notes: ASPP1, human, residues 882-1090 with n-Src loop residues 1 and 4 changed to the ASPP2 residues
B14: binds (human PP1α^7-330 [2]).

In the case of B15, the Kd (human PP1α^7-330 [2]) is reported as 2.6 nM, the “fold lower koff than ASPP2 on PP1α” value (human PP1α^7-330 [2]) is reported as 110 fold and the “fold lower kon than ASPP2 on PP1α” value (human PP1α^7-330 [2]) is reported as 7 fold. For the same binder, the “half-life of the complex” value (human PP1α^7-330 [2]) was 58 min and the “fold preference for PP1α and PP1β over PP1γ1” value (human PP1γ1^7-323) was 2 fold.

B16: PP1β^297-327 C-tail peptide (peptide, UniProt P62140 297-327, looked up)
peptide: PSEKKAKYQYGGLNSGRPVTPPRTANPPKKR
notes: PP1 catalytic subunit beta, human, residues 297-327; source: synthetic peptide (LRI peptide synthesis core facility)
In the case of B16, the “fold lower affinity than PP1α^301-330 (143 nM)” value (human ASPP2^920-1120) is reported as 7 fold.

B17: PP1γ1^298-323 C-tail peptide (peptide, UniProt P36873 298-323, looked up)
peptide: PAEKKKPNATRPVTPPRGMITKQAKK
notes: as for B9
In the case of B17, the “fold lower affinity than PP1α^301-330 (143 nM)” value (human ASPP2^920-1120) is reported as 5 fold.

B18: PP1γ2^297-324 C-tail peptide (peptide, UniProt P36873-2 297-324, looked up)
peptide: KPAEKKKPNATRPVTPPRVASGLNPSIQ
notes: PP1 catalytic subunit gamma, testis-specific isoform γ2, human, residues 297-324; source: synthetic peptide (LRI peptide synthesis core facility)
In the case of B18, the “fold lower affinity than PP1α^301-330 (143 nM)” value (human ASPP2^920-1120) is reported as 15 fold.
